Reference: PMC4482598

Target: ryanodine receptor type 1 (RyR1), endogenous in mouse myotubes (mouse (endogenous in mouse myotubes)) (UniProt E9PZQ0)
UniProt E9PZQ0, sequence (E9PZQ0 whole entry): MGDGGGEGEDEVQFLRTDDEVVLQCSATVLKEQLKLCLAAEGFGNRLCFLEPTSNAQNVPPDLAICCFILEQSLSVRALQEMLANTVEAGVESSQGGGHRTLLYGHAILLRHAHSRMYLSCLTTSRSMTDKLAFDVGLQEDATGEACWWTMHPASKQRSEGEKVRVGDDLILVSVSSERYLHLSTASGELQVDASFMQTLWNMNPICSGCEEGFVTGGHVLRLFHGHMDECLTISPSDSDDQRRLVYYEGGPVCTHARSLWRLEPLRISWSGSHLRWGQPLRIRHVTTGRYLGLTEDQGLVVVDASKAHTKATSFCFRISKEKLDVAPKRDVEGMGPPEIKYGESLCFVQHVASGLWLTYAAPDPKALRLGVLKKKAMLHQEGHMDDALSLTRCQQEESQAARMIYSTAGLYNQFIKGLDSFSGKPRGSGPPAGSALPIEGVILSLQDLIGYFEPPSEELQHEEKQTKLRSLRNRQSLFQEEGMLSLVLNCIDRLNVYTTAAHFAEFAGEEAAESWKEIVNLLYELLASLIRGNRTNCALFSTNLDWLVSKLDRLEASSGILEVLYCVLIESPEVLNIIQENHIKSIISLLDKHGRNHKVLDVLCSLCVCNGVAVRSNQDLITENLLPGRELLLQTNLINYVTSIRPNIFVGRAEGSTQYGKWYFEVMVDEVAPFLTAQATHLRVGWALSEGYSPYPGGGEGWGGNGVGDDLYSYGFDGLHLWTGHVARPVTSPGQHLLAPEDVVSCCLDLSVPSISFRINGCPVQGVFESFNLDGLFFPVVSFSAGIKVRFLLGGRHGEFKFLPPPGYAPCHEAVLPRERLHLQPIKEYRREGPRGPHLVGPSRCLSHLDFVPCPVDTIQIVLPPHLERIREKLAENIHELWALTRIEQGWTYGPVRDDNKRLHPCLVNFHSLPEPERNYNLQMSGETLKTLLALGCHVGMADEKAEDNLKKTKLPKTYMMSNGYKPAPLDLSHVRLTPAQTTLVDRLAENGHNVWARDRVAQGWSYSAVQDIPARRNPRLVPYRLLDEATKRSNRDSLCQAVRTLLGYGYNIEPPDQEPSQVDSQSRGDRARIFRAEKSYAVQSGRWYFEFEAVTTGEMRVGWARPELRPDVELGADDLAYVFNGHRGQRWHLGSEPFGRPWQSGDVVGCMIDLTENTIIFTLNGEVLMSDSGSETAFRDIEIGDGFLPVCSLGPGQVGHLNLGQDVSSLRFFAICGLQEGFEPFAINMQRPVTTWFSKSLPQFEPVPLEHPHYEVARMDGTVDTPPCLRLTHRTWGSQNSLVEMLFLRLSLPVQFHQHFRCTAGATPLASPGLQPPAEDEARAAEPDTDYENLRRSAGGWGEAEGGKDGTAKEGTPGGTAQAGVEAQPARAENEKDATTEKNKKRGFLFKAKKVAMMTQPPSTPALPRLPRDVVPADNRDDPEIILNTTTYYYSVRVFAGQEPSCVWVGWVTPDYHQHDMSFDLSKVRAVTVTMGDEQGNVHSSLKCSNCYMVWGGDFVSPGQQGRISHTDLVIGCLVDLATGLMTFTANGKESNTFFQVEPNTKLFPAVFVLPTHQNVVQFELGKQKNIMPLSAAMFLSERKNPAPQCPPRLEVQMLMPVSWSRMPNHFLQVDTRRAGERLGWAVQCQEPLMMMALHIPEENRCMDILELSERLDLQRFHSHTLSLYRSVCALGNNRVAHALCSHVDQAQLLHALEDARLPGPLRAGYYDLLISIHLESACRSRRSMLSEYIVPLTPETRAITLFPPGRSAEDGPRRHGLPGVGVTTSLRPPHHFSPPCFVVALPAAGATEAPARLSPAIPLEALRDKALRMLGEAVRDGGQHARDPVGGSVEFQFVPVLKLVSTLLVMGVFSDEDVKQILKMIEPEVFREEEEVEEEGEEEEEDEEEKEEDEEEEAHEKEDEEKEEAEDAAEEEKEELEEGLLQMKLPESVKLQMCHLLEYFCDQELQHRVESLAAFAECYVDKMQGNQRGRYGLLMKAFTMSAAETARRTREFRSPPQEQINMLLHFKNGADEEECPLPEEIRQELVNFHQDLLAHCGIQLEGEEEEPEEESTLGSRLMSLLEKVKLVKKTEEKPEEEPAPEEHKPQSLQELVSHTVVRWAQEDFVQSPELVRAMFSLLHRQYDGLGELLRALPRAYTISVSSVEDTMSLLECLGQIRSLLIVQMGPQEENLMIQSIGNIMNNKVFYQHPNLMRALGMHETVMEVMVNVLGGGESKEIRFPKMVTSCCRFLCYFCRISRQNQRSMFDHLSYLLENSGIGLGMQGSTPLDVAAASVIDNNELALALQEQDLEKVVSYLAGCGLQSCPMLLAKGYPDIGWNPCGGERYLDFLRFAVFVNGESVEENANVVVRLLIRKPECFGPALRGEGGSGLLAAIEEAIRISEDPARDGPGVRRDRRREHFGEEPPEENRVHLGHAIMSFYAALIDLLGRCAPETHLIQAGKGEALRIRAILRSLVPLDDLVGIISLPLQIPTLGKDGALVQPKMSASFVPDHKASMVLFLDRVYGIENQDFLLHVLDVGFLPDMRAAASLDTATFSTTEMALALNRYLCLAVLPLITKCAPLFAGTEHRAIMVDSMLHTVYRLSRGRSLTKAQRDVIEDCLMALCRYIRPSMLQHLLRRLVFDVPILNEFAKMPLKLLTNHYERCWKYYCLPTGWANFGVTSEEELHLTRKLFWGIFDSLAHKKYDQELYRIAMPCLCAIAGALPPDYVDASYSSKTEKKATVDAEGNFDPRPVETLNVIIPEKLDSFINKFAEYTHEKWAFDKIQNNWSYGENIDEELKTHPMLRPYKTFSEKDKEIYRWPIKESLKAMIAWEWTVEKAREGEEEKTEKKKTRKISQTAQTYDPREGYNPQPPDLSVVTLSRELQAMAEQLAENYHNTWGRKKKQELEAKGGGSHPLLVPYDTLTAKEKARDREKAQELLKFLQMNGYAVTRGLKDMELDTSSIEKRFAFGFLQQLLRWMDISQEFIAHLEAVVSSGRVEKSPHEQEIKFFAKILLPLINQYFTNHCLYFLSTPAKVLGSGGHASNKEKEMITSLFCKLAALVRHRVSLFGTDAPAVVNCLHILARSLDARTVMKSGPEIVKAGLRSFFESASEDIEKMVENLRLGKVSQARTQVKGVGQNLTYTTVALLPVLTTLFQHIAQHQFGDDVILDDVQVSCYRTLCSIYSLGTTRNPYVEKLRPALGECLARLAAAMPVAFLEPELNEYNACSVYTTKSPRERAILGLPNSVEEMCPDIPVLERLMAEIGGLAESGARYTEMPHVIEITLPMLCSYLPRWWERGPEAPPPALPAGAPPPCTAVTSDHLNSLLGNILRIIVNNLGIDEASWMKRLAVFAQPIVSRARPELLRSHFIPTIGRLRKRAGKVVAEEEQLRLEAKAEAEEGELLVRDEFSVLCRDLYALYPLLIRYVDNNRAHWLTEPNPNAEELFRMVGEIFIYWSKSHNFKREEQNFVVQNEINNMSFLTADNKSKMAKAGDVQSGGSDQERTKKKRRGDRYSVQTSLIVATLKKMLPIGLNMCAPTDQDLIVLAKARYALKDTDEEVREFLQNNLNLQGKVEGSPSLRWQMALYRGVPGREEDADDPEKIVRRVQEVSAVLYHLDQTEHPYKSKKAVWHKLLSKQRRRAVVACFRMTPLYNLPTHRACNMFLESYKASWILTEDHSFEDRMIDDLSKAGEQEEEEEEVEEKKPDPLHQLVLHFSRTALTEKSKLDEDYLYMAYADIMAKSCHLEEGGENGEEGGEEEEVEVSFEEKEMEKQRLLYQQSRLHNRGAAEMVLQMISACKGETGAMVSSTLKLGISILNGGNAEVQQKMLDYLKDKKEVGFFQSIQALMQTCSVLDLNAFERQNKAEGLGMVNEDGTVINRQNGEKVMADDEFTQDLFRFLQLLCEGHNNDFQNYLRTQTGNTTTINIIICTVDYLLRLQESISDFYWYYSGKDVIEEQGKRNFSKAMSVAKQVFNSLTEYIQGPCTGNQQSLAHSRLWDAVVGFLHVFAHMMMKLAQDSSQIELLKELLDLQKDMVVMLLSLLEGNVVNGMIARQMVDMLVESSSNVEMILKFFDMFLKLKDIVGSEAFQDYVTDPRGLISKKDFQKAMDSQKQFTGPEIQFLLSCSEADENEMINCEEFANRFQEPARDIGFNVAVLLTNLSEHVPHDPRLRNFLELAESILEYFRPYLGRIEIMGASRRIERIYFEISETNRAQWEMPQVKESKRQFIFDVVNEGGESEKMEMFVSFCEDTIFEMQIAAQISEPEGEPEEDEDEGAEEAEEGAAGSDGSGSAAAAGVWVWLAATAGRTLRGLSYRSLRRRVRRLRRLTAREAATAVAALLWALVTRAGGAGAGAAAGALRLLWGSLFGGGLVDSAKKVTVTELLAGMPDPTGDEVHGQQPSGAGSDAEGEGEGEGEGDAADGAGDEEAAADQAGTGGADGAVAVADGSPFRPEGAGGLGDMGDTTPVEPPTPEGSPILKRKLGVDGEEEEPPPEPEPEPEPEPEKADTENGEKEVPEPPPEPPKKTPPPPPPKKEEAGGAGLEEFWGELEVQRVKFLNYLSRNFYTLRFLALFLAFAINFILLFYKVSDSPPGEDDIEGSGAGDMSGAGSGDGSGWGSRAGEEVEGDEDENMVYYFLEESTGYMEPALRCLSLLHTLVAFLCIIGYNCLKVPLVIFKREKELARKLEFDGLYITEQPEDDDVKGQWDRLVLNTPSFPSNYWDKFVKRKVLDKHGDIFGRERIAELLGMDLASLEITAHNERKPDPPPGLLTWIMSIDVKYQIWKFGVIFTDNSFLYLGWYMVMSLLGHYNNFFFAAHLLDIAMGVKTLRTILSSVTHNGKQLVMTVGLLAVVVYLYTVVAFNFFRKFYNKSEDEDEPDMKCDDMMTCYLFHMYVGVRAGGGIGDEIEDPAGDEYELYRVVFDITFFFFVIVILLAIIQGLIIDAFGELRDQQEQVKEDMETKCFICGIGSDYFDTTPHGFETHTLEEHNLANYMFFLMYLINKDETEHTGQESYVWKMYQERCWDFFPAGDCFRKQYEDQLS

Substance: H458 CCPGCC ß1a-CFP (construct 21) (natural protein)
- intramolecular FRET efficiency (C-terminal CFP to FlAsH at H458) of construct 21 in ß1 KO myotubes (control without native ß1 subunits): 0.12
